Data: article PMC12207370, “Macrocyclic Peptide Probes for Immunomodulatory Protein CD59: Potent Modulators of Bacterial Toxin Activity and Antibody‐Dependent Cytotoxicity” (Angewandte Chemie (International Ed. in English), 2025)

Target: T1, biotinylated CD59 (Homo sapiens, UniProt P13987)
T1 construct: Recombinant soluble human CD59 with an additional C-terminal cysteine residue
T1 sequence (P13987 26-102 limits assumed): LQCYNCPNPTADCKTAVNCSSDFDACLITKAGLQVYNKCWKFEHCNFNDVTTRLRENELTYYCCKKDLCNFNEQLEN
Assay: mRNA-display cyclic peptide screen against CD59-biotin, NGS abundance after 6th selection round
Details: for Percentage Seq I: counts normalised by total counts of sample Seq I; for Percentage Seq I / Percentage Seq II: percentage of the pool; for Percentage Seq I / Percentage Seq II / Percentage Average / Percentage of the pool, averaged across the two sequencing samples / Percentage of the pool, Seq I / Percentage of the pool, Seq II: sheet R6; for Percentage Seq II: counts normalised by total counts of sample Seq II; for Percentage Average: percentage of the pool averaged across the two sequencing samples; for Counts Seq I / Counts Seq II: raw NGS counts of peptide sequence; for Counts Seq I: sequencing sample Seq I; for Counts Seq I / Counts Seq II / Counts (raw counts for peptide sequence), Seq I / Counts (raw counts for peptide sequence), Seq II: sheet R6 (6th selection round); for Counts Seq II: sequencing sample Seq II; for Counts (raw counts for peptide sequence), Seq I: NGS sample Seq I; for Counts (raw counts for peptide sequence), Seq II: NGS sample Seq II; for Percentage of the pool, averaged across the two sequencing samples: average of Seq I and Seq II; for Percentage of the pool, Seq I: counts normalised by total counts of NGS sample Seq I; for Percentage of the pool, Seq II: counts normalised by total counts of NGS sample Seq II
From the text: To discover novel non‐protein CD59 ligands, we screened a library of 10^12 cyclic peptides against CD59 using mRNA‐display (Figure 2a).^[ [23], [24], [25], [26], [27], [28], [29] ^] Briefly, an mRNA library was designed in which the start codon was reprogrammed from Met to N‐chloroacetyl‐D‐Tyr (ClAc‐D‐Tyr), followed by 10–12 randomly encoded natural amino acids, a Cys residue, a (GlySer)3 linker, and a stop codon. […] The total library diversity was 1.51 × 10^13 molecules, comprising 5.02 × 10^12 molecules of each macrocycle size, covering a subset of the maximum theoretical diversity of this library design. Following in vitro translation, ClAc‐D‐Tyr spontaneously reacts with either the C‐terminal Cys or a Cys in the random region, yielding macrocyclic thioether peptides. Hits from the library were identified through iterative enrichment and amplification against biotinylated CD59, then immobilized on streptavidin beads. Fifteen hit sequences (CP‐01 to CP‐15), enriched with abundance >1% relative to the total pool of recovered binders after the 6th round of selection, were synthesized by solid phase peptide synthesis (SPPS), without the (Gly‐Ser)3 linker.
Figure 2 Discovery of macrocyclic peptide ligands with nanomolar CD59 affinity using mRNA display. a) The selection process. PCR = polymerase chain reaction, SPPS = solid phase peptide synthesis. b) Table showing details of the peptides with nanomolar affinity for CD59 as well as the binding affinity of the lead inhibitor of CD59, rILYd4. K D values are presented as the average of three technical replicates ± SEM. Structures of all peptides and SPR sensograms are presented in Figures S1 and S2. *indicates the presented sequences are the variable regions of these cyclic peptides; each is flanked by an N‐terminal Ac‐D‐Tyr cyclized to a C‐terminal Cys. R6 abundance (%) is defined as (the given number of NGS reads for a given sequence/the total number of reads of unique sequences observed in NGS)*100 following the 6th selection round. c) Representative sensogram of the interaction between CP‐06 with immobilized CD59 by SPR analysis. Inset showing the equilibrium binding curve of CP‐06 to CD‐59. Below in the box are the association and dissociation rate constants of CP‐06. Concentrations are plotted in descending order from 800‐3.1 nM in line with their position on the legend. […] (nM)'; the box with Kon/Koff has no label of its own / ILYd4: the label may be cut off at the left edge (possibly 'rILYd4') / CP-02, KD: 15.3 ± 0.2, small print, 3 or 8 uncertain / CP-03, KD: 23.4 ± 0.7, small print / CP-06, KD: 11.3 ± 0.0, small print, 3 or 8 uncertain / CP-13, KD: 10.8 ± 0.7, small print, 8 or 6 uncertain / ILYd4, KD: 48.3 ± 1.1, small print, 8 and 3 uncertain
The mRNA-display cyclic peptide screen was performed against CD59-biotin by T.E.M: DNA templates for transcription were generated by PCR in a similar manner to that previously described.^2 RNA oligonucleotides were transcribed from the DNA templates using T7 RNA polymerase and purified by phenol/chloroform extraction followed by ethanol precipitation. Oligonucleotide concentrations were determined spectroscopically by absorbance at 260 nm. In the first selection round a 1:1:1 molar ratio of NNK10/NNK11/NNK12 was used. The procedure for selection rounds 2-6 is described below; round 1 was conducted at twice the scale.
RNA encoding for the peptide library ligated to a puromycin-modified oligonucleotide was […] (final [RNA] = 2.5 µM) using a customised PURE express kit (lacking release factor 1 and methionine, supplemented with […] initiator tRNA acylated with N-chloroacetyl-d-tyrosine prepared as previously described)^3 in a final volume of 5.6 µL for 1 hour at 37 °C.
This mixture was incubated at 42 °C for 1 hour before being diluted to 500 µL with PBS (10 mM Na-PO4 pH 7.4, 2.7 mM KCl, 137 mM NaCl) and 0.5 µL taken for subsequent use in qPCR. […]

SWTWGNRSTVRG
Percentage Seq I: 0.011%
Percentage Seq II: 0.026%
Percentage Average: 0.018%
Counts Seq I: 49
Counts Seq II: 11

FVTGNREHTRG
Percentage Seq I: 0.025%
Percentage Seq II: 0.035%
Percentage Average: 0.030%
Counts Seq I: 110
Counts Seq II: 15

SVGGSRSWTRG
Percentage Seq I: 0.129%
Percentage Seq II: 0.146%
Percentage Average: 0.138%
Counts Seq I: 566
Counts Seq II: 63

CFAYRTHTTAV
Counts (raw counts for peptide sequence), Seq I: 63
Counts (raw counts for peptide sequence), Seq II: 6
Percentage of the pool, averaged across the two sequencing samples: 0.014%
Percentage of the pool, Seq I: 0.014%
Percentage of the pool, Seq II: 0.014%

CYGGRTFTYAWS
Percentage Seq I: 0.241%
Percentage Seq II: 0.306%
Percentage Average: 0.274%
Counts Seq I: 1056
Counts Seq II: 132

CFSKRIAPGAQ
Percentage Seq I: 0.020%
Percentage Seq II: 0.019%
Percentage Average: 0.019%
Counts Seq I: 88
Counts Seq II: 8

WRDRFDQCVL
Percentage Seq I: 2.463%
Percentage Seq II: 2.351%
Percentage Average: 2.407%
Counts Seq I: 10776
Counts Seq II: 1013

STKNDYNNVPC
Percentage Seq I: 0.012%
Percentage Seq II: 0.026%
Percentage Average: 0.019%
Counts Seq I: 54
Counts Seq II: 11

RIGTSTCPFKFS
Percentage Seq I: 0.024%
Percentage Seq II: 0.023%
Percentage Average: 0.024%
Counts Seq I: 106
Counts Seq II: 10

TAWGNRQIQYY
Counts (raw counts for peptide sequence), Seq I: 73
Counts (raw counts for peptide sequence), Seq II: 7
Percentage of the pool, averaged across the two sequencing samples: 0.016%
Percentage of the pool, Seq I: 0.017%
Percentage of the pool, Seq II: 0.016%

CFAARLSNGDS
Percentage Seq I: 0.319%
Percentage Seq II: 0.362%
Percentage Average: 0.341%
Counts Seq I: 1397
Counts Seq II: 156

QWNRWYGMDER
Percentage Seq I: 0.084%
Percentage Seq II: 0.097%
Percentage Average: 0.091%
Counts Seq I: 369
Counts Seq II: 42

CFGRRADPDGI
Percentage Seq I: 0.040%
Percentage Seq II: 0.030%
Percentage Average: 0.035%
Counts Seq I: 174
Counts Seq II: 13

LAWGNRQIQYY
Counts (raw counts for peptide sequence), Seq I: 78
Counts (raw counts for peptide sequence), Seq II: 6
Percentage of the pool, averaged across the two sequencing samples: 0.016%
Percentage of the pool, Seq I: 0.018%
Percentage of the pool, Seq II: 0.014%

YAQGDKLTARG
Percentage Seq I: 0.028%
Percentage Seq II: 0.026%
Percentage Average: 0.027%
Counts Seq I: 124
Counts Seq II: 11

DCWVRGSRNYT
Counts (raw counts for peptide sequence), Seq I: 62
Counts (raw counts for peptide sequence), Seq II: 6
Percentage of the pool, averaged across the two sequencing samples: 0.014%
Percentage of the pool, Seq I: 0.014%
Percentage of the pool, Seq II: 0.014%

CFRYRLGLTST
Percentage Seq I: 0.062%
Percentage Seq II: 0.058%
Percentage Average: 0.060%
Counts Seq I: 271
Counts Seq II: 25

CFSRRTSVPNTT
Percentage Seq I: 0.209%
Percentage Seq II: 0.190%
Percentage Average: 0.200%
Counts Seq I: 914
Counts Seq II: 82

HVIGNRSFTRG
Percentage Seq I: 0.020%
Percentage Seq II: 0.016%
Percentage Average: 0.018%
Counts Seq I: 87
Counts Seq II: 7

CFAGRLTEGV
Percentage Seq I: 0.035%
Percentage Seq II: 0.044%
Percentage Average: 0.040%
Counts Seq I: 155
Counts Seq II: 19

YVFGNRSFARG
Counts (raw counts for peptide sequence), Seq I: 32
Counts (raw counts for peptide sequence), Seq II: 7
Percentage of the pool, averaged across the two sequencing samples: 0.012%
Percentage of the pool, Seq I: 0.007%
Percentage of the pool, Seq II: 0.016%

NTAWGNVAVAYF
Percentage Seq I: 0.042%
Percentage Seq II: 0.030%
Percentage Average: 0.036%
Counts Seq I: 183
Counts Seq II: 13

CFVNRLSDSLSL
Percentage Seq I: 0.048%
Percentage Seq II: 0.070%
Percentage Average: 0.059%
Counts Seq I: 212
Counts Seq II: 30

CRGNRFYQLSFH
Percentage Seq I: 0.154%
Percentage Seq II: 0.186%
Percentage Average: 0.170%
Counts Seq I: 674
Counts Seq II: 80

LWGTRSFTLVRS
Counts (raw counts for peptide sequence), Seq I: 64
Counts (raw counts for peptide sequence), Seq II: 5
Percentage of the pool, averaged across the two sequencing samples: 0.013%
Percentage of the pool, Seq I: 0.015%
Percentage of the pool, Seq II: 0.012%

ISWGNGSLAFY
Percentage Seq I: 0.147%
Percentage Seq II: 0.116%
Percentage Average: 0.132%
Counts Seq I: 643
Counts Seq II: 50

CFVGRLTLTST
Counts (raw counts for peptide sequence), Seq I: 65
Counts (raw counts for peptide sequence), Seq II: 3
Percentage of the pool, averaged across the two sequencing samples: 0.011%
Percentage of the pool, Seq I: 0.015%
Percentage of the pool, Seq II: 0.007%

YLSGSSNFTRG
Percentage Seq I: 0.042%
Percentage Seq II: 0.044%
Percentage Average: 0.043%
Counts Seq I: 184
Counts Seq II: 19

SISGGRDYTRG
Percentage Seq I: 0.032%
Percentage Seq II: 0.026%
Percentage Average: 0.029%
Counts Seq I: 141
Counts Seq II: 11

CFSRRLTAGAV
Percentage Seq I: 0.031%
Percentage Seq II: 0.030%
Percentage Average: 0.030%
Counts Seq I: 134
Counts Seq II: 13

SWTWGDRSSVRG
Percentage Seq I: 0.016%
Percentage Seq II: 0.023%
Percentage Average: 0.020%
Counts Seq I: 71
Counts Seq II: 10

CLDKWGRLWS
Percentage Seq I: 0.911%
Percentage Seq II: 0.754%
Percentage Average: 0.833%
Counts Seq I: 3987
Counts Seq II: 325

RYGGRTFIYAWS
Percentage Seq I: 0.025%
Percentage Seq II: 0.026%
Percentage Average: 0.025%
Counts Seq I: 111
Counts Seq II: 11

FVTGNRDRTRG
Percentage Seq I: 0.019%
Percentage Seq II: 0.026%
Percentage Average: 0.022%
Counts Seq I: 81
Counts Seq II: 11

CFSRRLTAGAT
Percentage Seq I: 0.045%
Percentage Seq II: 0.035%
Percentage Average: 0.040%
Counts Seq I: 195
Counts Seq II: 15
